In paper PMC3416868, “The Fission Yeast GATA Factor, Gaf1, Modulates Sexual Development via Direct Down-Regulation of ste11+ Expression in Response to Nitrogen Starvation”:
Where a chain is given by its changes, count along the chain named.

How the values were obtained:
[1] = target: T1, GST-Gaf1 (Schizosaccharomyces pombe (972?)) (UniProt Q10280); test: competition; settings: 10 mM Tris pH 7.5, 2 mM MgCl2, 50 mM NaCl, 1 mM DTT, 5% glycerol, 2 ug poly(dI-dC) in 20 ul, room temperature, 20 min; 6% native PAGE
T1 sequence: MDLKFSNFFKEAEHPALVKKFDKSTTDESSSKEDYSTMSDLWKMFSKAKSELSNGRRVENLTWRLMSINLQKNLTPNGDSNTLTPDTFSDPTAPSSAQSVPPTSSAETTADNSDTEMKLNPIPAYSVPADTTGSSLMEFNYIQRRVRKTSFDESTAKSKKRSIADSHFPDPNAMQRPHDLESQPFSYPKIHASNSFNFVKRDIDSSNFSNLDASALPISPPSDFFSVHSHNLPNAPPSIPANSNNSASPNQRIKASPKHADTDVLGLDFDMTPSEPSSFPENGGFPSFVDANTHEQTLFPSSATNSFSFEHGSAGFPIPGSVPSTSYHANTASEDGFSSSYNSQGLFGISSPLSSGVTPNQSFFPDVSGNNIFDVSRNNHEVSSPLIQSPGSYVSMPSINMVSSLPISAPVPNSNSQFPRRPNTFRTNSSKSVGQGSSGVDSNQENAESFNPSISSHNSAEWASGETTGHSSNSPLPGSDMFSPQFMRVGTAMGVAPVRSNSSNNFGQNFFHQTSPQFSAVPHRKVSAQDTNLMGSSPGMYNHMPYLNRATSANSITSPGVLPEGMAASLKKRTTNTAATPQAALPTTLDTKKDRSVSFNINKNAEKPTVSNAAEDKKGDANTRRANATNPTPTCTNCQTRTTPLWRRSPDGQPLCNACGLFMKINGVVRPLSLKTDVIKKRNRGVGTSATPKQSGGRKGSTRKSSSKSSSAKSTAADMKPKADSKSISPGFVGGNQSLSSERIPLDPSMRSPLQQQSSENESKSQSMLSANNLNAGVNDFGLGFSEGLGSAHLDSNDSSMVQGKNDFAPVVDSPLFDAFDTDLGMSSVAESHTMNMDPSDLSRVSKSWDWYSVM

[2] = target: T2, GST-Gaf1 (Schizosaccharomyces pombe, UniProt Q10280 1-855); test: competition; cold PW, 100-fold, against labeled PA; 10 mM Tris pH 7.5, 2 mM MgCl2, 50 mM NaCl, 1 mM DTT, 5% glycerol, 2 ug poly(dI-dC) in 20 ul, room temperature, 20 min; 6% native PAGE; settings: protein: recombinant; tags: N-terminal GST (pGEX4T3); label: 32P 5'-end (probe); blunt
T2 sequence: T1 sequence

[3] = target: T2, GST-Gaf1; test: competition; cold PM, 100-fold, against labeled PA; 10 mM Tris pH 7.5, 2 mM MgCl2, 50 mM NaCl, 1 mM DTT, 5% glycerol, 2 ug poly(dI-dC) in 20 ul, room temperature, 20 min; 6% native PAGE; settings: protein: recombinant; tags: N-terminal GST (pGEX4T3); label: 32P 5'-end (probe)

Molecule: GGATATCCTTTTAATATATGCTAAATGAATAGATTCTCACTATGTAAGTCACCAGGTATGTATGTATATATATATATATATACATACGCATTGGCAACCAACTAGTAAGAGTATAGAGCGAGGCGTAATACGCGATGTTACTGACAATGAAAATCAAACAAAGAAATTCAACTTTTTTAAGTCTAGCCAAAATGTGTATGAGGGGAAGGGACAAAATTCACAGGGGTTAAAGTAACATATG (double strand) [PB]
- binding [1]: no binding

B1: PW (dsDNA)
DNA 1: CATTTTGCCTTGCGCTATCTCCCTCAACGAAAAG
DNA 2: CTTTTCGTTGAGGGAGATAGCGCAAGGCAAAATG
- binding result [2]: binds

B2: PM (dsDNA)
DNA 1: B1 DNA 1 with T16A, A17T, C19G
DNA 2: B1 DNA 2 with G16C, T18A, A19T
- binding result [3]: no binding
